Reference: paper doi:10.1101/2020.04.16.045419 (bioRxiv, 2020)

B1: Sb#58 (VHH)
VHH: QVQLVESGGGSVQAGGSLRLSCAASGNISTIEYLGWFRQAPGKEREGVAALYTWHGQTYYADSVKGRFTVSLDNAKNTVYLQMNSLKPEDTALYYCAAARWGRHMPLSATEYSYWGQGTQVTVS
B2: Sb#59 (VHH)
VHH: QVQLVESGGGSVQAGGSLRLSCAASGNIESIYYLGWFRQAPGKEREGVAALWTGDGETYYADSVKGRFTVSLDNAKNTVYLQMNSLKPEDTALYYCAAAAWGNSAPLTTYRYYYWGQGTQVTVS
B3: Sb#62 (VHH)
VHH: QVQLVESGGGSVQAGGSLRLSCAASGTIADIKYLGWFRQAPGKEREGVAALMTRWGSTYYADSVKGRFTVSLDNAKNTVYLQMNSLKPEDTALYYCAAANYGANYPLYSQQYSYWGQGTQVTVS
B4: Sb#63 (VHH)
VHH: QVQLVESGGGSVQAGGSLRLSCAASGSISSIKYLGWFRQAPGKEREGVAALMTRWGMTYYADSVKGRFTVSLDNAKNTVYLQMNSLKPEDTALYYCAAANYGANEPLQYTHYNYWGQGTQVTVS
B5: Sb#65 (VHH)
VHH: QVQLVESGGGSVQAGGSLRLSCAASGTIAHIKYLGWFRQAPGKEREGVAALMTKWGQTYYADSVKGRFTVSLDNAKNTVYLQMNSLKPEDTALYYCAAASYGANFPLKASDYSYWGQGTQVTVS
B6: Sb#67 (VHH)
VHH: QVQLVESGGGSVQAGGSLRLSCAASGSISSITYLGWFRQAPGKEREGVAALVTYSGNTYYADSVKGRFTVSLDNAKNTVYLQMNSLKPEDTALYYCAAATWGHSWPLYNDEYWYWGQGSQVTVS
B7: Sb#66 (VHH)
VHH: QVQLVESGGGSVQAGGSLRLSCAASGSIQAITYLGWFRQAPGKEREGVAALVTWNGQTYYADSVKGRFTVSLDNAKNTVYLQMNSLKPEDTALYYCAAADWGYDWPLWDEWYWYWGQGTQVTVS
B8: Sb#50 (VHH)
VHH: QVQLVESGGGSVQAGGSLRLSCAASGYIDKIVYLGWFRQAPGKEREGVAALYTLSGHTYYADSVKGRFTVSLDNAKNTVYLQMNSLKPEDTALYYCAAATEGHAHALYRLHYYWGQGTQVTVS
B9: Sb#64 (VHH)
VHH: QVQLVESGGGSVQAGGSLRLSCAASGEIESIFYLGWFRQAPGKEREGVAALYTYVGQTYYADSVKGRFTVSLDNAKNTVYLQMNSLKPEDTALYYCAAASYGAAHPLSIMRYYYWGQGTQVTVS
B10: Sb#55 (VHH)
VHH: QVQLVESGGGSVQAGGSLRLSCAASGKIWTIKYLGWFRQAPGKEREGVAALMTRWGYTYYADSVKGRFTVSLDNAKNTVYLQMNSLKPEDTALYYCAAANYGSNFPLAEEDYWYWGQGTQVTVS
B11: Sb#69 (VHH)
VHH: QVQLVESGGGSVQAGGSLRLSCAASGSISSITYLGWFRQAPGKEREGVAALNTFNGTTYYADSVKGRFTVSLDNAKNTVYLQMNSLKPEDTALYYCAAATWGYSWPLIAEYNWYWGQGTQVTVS
B12: Sb#71 (VHH)
VHH: QVQLVESGGGSVQAGGSLRLSCAASGSISSITYLGWFRQAPGKEREGVAALKTQAGFTYYADSVKGRFTVSLDNAKNTVYLQMNSLKPEDTALYYCAAANWGYSWPLYEADDWYWGQGTQVTVS
B13: Sb#56 (VHH)
VHH: QVQLVESGGGSVQAGGSLRLSCAASGNISQIHYLGWFRQAPGKEREGVAALNTDYGYTYYADSVKGRFTVSLDNAKNTVYLQMNSLKPEDTALYYCAAAYYFGDDIPLWWEAYSYWGQGTQVTVS
B14: Sb#52 (VHH)
VHH: QVQLVESGGGSVQAGGSLRLSCAASGNIQRIYYLGWFRQAPGKEREGVAALMTYTGHTYYADSVKGRFTVSLDNAKNTVYLQMNSLKPEDTALYYCAAAYVGAENPLPYSMYGYWGQGTQVTVS
B15: Sb#51 (VHH)
VHH: QVQLVESGGGLVQAGGSLRLSCAASGFPVYQGEMHWYRQAPGKEREWVAAIRSTGVQTWYADSVKGRFTISRDNAKNTVYLQMNSLKPEDTAVYYCRVWVGTHYFGQGTQVTVS
B16: Sb#53 (VHH)
VHH: QVQLVESGGGSVQAGGSLRLSCAASGQISHIKYLGWFRQAPGKEREGVAALITRWGQTYYADSVKGRFTVSLDNAKNTVYLQMNSLKPEDTALYYCAAADYGASDPLWFIHYLYWGQGTQVTVS

What follows are binders tested against SARS-CoV-2 RBD construct consisting of residues Pro330-Gly526 fused to Venus YFP (RBD-vYFP) (SARS-CoV-2, UniProt P0DTC2).
B1: binds.
B2: binds.
B3: binds.
B4: binds.
B5: binds.
B6: binds.
B7: binds.
B8: binds.
B9: binds.
B10: binds.
B11: binds.
B12: binds.
B13: binds.
B14: binds.
B15: binds.
B16: binds.
